Results as given in paper PMC7231451.

Key:
[1] = target: associated or linker proteins (plasma proteins of the approximately 320 kDa complex); assay: SEC
[2] = target: Complement C3 (purified, native) (UniProt P01024); assay: pull-down
[3] = target: Complement C3 (purified, native) (UniProt P01024); assay: flow cytometry on coated beads

Substance	percent of AAT in the complex [1]	Western blot densitometry of bound AAT (C3-coated beads vs control beads) [2]	fluorescence intensity of binding (h-AAT vs r-AAT) [3]
Alpha-1 antitrypsin (from UniProt P01009 25-418) (natural protein)	13%		
plasma purified human AAT (natural protein)		2.7 AU	1.5 AU
